Test results from paper PMC6992696, “Supramolecular tholos-like architecture constituted by archaeal proteins without functional annotation” (Scientific Reports, 2020).

B1: N-terminally hexahistidine-tagged PbaA (natural protein, Pyrococcus furiosus)
chain: MEEKKPVNLVLPEVENAIFIEGYPGVGLVGHIAANFLAKELDMDLIGYVDSLFIPPMSLILEGRPTPPLRFYGKNNIIIAIADIFLPPTLVNEIAKEIVNYLKKVNAEKVISLAGMGIGFFKDTFEVWGIGGSEEENKELESLGVKILKYGSITGMSGKLLWEASRAGLKSYVLLGETFGDRPDPRAAANVVEVLNKMLGLNVSVEPLLKEAEMIEEQLRRMHEQMEEARRKMERQYETMYL
notes: PbaA (PF0015), Pyrococcus furiosus; The His tag was labelled with a monoclonal anti-histidine-tag antibody (R&D Systems) in the cryo-EM sample; the antibody is only a tool; May be the same preparation as m1 if the tag was never removed there; not shown: His6, N-terminal, kept
B2: PbaA (PF0015) from Pyrococcus furiosus, full-length (natural protein, UniProt Q8U4Q9 1-242, looked up)
chain: B1 chain
notes: PbaA (PF0015), Pyrococcus furiosus, full-length; cloned from P. furiosus genomic DNA; Homopentameric ring when isolated; two pentameric rings in the 10:10 complex with PF0014; also called full-length PbaA; PbaA pentamer
B3: PF0014 from Pyrococcus furiosus (natural protein, UniProt Q8U4R0 1-128, looked up)
chain: MVVEIPLLSGIARRTLDALMRNPIRTVEIRNARNYMTLEKVKEGDLVFLTYESLEDVMRGTEGIIAMVTRMEKSHQRVPWEESDEREISICRVQLKLVGLGRVVEVQEKNGVVFVKVREMLHHEISMG
notes: PF0014, Pyrococcus furiosus, an archaeal protein without functional annotation; Monomeric by HS-AFM when isolated; ten copies in the complex with PbaA

What was measured:
[1] = biological target: PbaA_(CΔ30), mutant PbaA with deletion of 30 C-terminal amino acid residues (Pyrococcus furiosus); experiment: SEC + other: negative stain EM; PbaA_(CΔ30) alone, in the absence of PF0014
[2] = biological target: PbaA_(CΔ30), mutant PbaA with deletion of 30 C-terminal amino acid residues (Pyrococcus furiosus); experiment: cryo-EM structure; purified PbaA_(CΔ30)/PF0014 complex; map EMD-0755 at 7.3 Å with D5 symmetry and 8.5 Å with C1 symmetry
[3] = biological target: the molecule itself; experiment: cryo-EM structure; hexahistidine-tagged PbaA/Trx-PF0014 complex treated with excess anti-histidine-tag monoclonal antibody for 2 h at 4 °C; map at 14 Å, C1 symmetry
[4] = biological target: the molecule itself; experiment: HS-AFM; isolated proteins, top views on APTES-mica, tapping mode, room temperature
[5] = biological target: B2; experiment: native MS; purified PbaA/PF0014 complex (20 μM) exchanged into 150 mM ammonium acetate pH 9.0, 2-fold diluted, nanoflow ESI, SYNAPT G2-Si; settings: both partners purified

PbaA_(CΔ30), mutant PbaA with deletion of 30 C-terminal amino acid residues (domain or fragment)
stoichiometry N [1]: 14 protomers
stoichiometry N [2]: 5 protomers

B1
stoichiometry N [3]: 5 protomers

B2
stoichiometry N [4]: 5 protomers

B3
stoichiometry N [5]: 1 PF0014 per PbaA (10:10)
